We go through three molecules from article PMC9765544, “Metabolic Mechanism and Physiological Role of Glycerol 3-Phosphate in Pseudomonas aeruginosa PAO1” (mBio, 2022).

The target of one data set is T1, GlpR (Pseudomonas aeruginosa, UniProt Q51391).
T1 construct: recombinant from pETDuet-glpR in E. coli BL21(DE3), HisTrap HP purified
T1 sequence (Q51391 1-251): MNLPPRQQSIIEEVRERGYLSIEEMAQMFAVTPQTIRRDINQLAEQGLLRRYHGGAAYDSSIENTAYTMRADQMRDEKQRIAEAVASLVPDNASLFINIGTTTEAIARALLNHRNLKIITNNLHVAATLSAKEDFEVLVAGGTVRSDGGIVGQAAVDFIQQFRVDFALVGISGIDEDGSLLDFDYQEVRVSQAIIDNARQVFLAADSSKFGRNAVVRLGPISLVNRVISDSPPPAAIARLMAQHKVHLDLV
Description: EMSA, prevention of GlpR binding to glpFK and glpD promoter DNA. As to conditions: 10 mM G3P (lithium salt), 500 nM GlpR, 3.5 nM DNA probe, pH 7.4, 30 °C; effector (inducer).

The next data set has as its system O=P(O)(O)OC[C@H](O)CO. Kind of data set: purified protein. The note with it: 5 mM MgCl2, 50 mM Tris-HCl pH 7.0, bis(cyclohexylammonium) salt.
Substrate in data set [1]: O=P(O)(O)OC[C@H](O)CO
Kind of data set: released inorganic phosphate, Michaelis-Menten regression. The data set is classed as biochemical, Pseudomonas aeruginosa. The note with it: 5 mM MgCl2, 50 mM Tris-HCl pH 7.0, bis(cyclohexylammonium) salt.

Consider `O=P(O)(O)OC[C@H](O)CO` [G3P], for which the “EMSA, prevention of GlpR binding to glpFK and glpD promoter DNA” value at GlpR is “G3P prevents GlpR binding to the glpFK (D) and glpD (E) promoter regions”.

On to PA3172 (Pseudomonas aeruginosa PAO1), for which the Km in the data set with O=P(O)(O)OC[C@H](O)CO was found to be 5.634 ± 0.209 mM.

B1: PA0562 (Pseudomonas aeruginosa PAO1) (protein)
chain: MPHPIDALISDCDGVLVDSEVIAERVMYEALSAYAPLEELQRLLEGTFGLTSRDILDRVEKHFGLRIPDSFNREVRQRSEEMVAQVQPIPGAREALLALDLPVAVASNSRRHSLERSLARAGLSELIGERLASADMVALPKPAPDVYLHAASLLGVAPERCLVVEDSSTGTRAALAAGMRVIGFVGAGHIPAGHAEVLRELGAIAIVEHMRELPETVARLRRTV
For the molecule B1, the Km in data set [1] amounted to 8.937 ± 1.350 mM.

In general, Km refers to the concentration of substrate that gives half-maximal velocity.
